A word on the stoichiometry N: it is the number of molecules, sites or subunits per partner or assembly. The term Kd denotes the free concentration of one partner at which half of the binding sites on the other are occupied at equilibrium, for simple one-to-one binding. Broadly, the koff is a measure of how fast the partners let go of each other. In general, kon refers to the rate constant with which the complex forms.

From article PMC5224519, “Developing the IVIG biomimetic, Hexa-Fc, for drug and vaccine applications” (Scientific Reports, 2015) come the findings set out here.

The target in assay [1] is soluble recombinant human DC-SIGN tetramers (human) (UniProt Q9NNX6). The assay can be described thus: ELISA; binding to human DC-SIGN of Igs untreated or treated with PNGase F, Endo S or Endo H (Figure S8); format not told in the text shown. On the technique in general: ELISA stands for enzyme-linked immunosorbent assay.
The next assay deals with hIgG1-Fc-CL309/310CH-TP. Description: non-reducing SDS-PAGE (blot and Coomassie); 5 μg purified Fc on 4-12% bis-Tris gradient gels, non-reducing or reducing; blot with goat anti-human IgG or Coomassie blue.
In assay [2] the target is soluble recombinant human DC-SIGN tetramers (human) (UniProt Q9NNX6). Description: SPR; multichannel SPR (ProteOn XPR36); DC-SIGN or SIGNR1 amine-coupled on GLM chips; Ig preparations or gp120 as analytes, 25°C, 25 μl per minute; 1:1 Langmuir model. For orientation: Surface plasmon resonance follows binding to a sensor surface in real time, without labels.
Assay [3] addresses recombinant SIGNR1 (mouse) (UniProt Q8CJ91). Described as above.
For assay [4], the target named is T1, soluble recombinant human DC-SIGN tetramers (human, UniProt Q9NNX6 1-404).
T1 construct: human DC-SIGN, soluble recombinant; also called dendritic cell-specific intercellular adhesion molecule-3-grabbing non-integrin
T1 sequence (looked up): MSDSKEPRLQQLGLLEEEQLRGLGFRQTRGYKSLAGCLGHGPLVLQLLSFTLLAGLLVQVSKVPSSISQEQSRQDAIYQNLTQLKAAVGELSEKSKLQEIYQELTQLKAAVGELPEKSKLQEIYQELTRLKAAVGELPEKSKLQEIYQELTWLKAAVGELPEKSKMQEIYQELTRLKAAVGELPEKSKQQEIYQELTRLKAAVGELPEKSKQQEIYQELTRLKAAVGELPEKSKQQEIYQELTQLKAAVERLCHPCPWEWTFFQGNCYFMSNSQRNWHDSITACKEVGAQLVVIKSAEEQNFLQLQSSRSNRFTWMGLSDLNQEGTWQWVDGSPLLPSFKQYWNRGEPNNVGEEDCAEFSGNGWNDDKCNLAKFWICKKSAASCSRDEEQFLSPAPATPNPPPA
The assay is described as above. To be noted: both partners purified.

The target in a further assay is T2, recombinant SIGNR1 (mouse, UniProt Q8CJ91 1-325).
T2 construct: mouse SIGNR1, soluble recombinant; also called the mouse orthologue of the human DC-SIGN; source: bought: R&D systems
T2 sequence (looked up): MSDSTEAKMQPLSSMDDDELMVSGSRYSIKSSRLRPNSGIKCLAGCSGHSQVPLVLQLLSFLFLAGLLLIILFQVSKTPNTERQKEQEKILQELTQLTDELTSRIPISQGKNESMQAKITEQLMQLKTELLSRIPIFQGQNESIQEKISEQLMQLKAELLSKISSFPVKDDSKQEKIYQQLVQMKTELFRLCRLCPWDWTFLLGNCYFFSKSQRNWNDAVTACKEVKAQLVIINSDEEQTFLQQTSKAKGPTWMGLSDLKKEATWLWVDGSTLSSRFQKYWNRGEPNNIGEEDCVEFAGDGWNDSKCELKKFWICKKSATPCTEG
The description is as above. The following applies: both partners purified.

As for PNGase F treated human IgM (antibody), the residual binding in assay [1] was 50%.

In the assay with hIgG1-Fc-CL309/310CH-TP, hIgG1-Fc-CL309/310CH-TP returned a stoichiometry N of 6.

Turning to “hexameric-Fc (hexa-Fc), hIgG1-Fc-TP-LH309/310CL”, in assay [2], the Kd turned out to be 1260 nM, the koff was found to be 0.000839 s⁻¹ and the kon was 668 M⁻¹ s⁻¹.

Regarding recombinant HIV gp120 (natural protein), in assay [3], the dissociation constant (Kd) was found to be 3.91 nM, the koff worked out at 9.46e-05 s⁻¹ and the kon was found to be 27700 M⁻¹ s⁻¹. Besides, in assay [2], the Kd worked out at 4.39 nM, the koff was determined as 0.000158 s⁻¹ and the kon was 36000 M⁻¹ s⁻¹.

B1: CHO cell derived recombinant (hexameric) IgM-Fc (domain or fragment)
chain: IAELPPKVSVFVPPRDGFFGNPRKSKLICQATGFSPRQIQVSWLREGKQVGSGVTTDQVQAEAKESGPTTYKVTSTLTIKESDWLGQSMFTCRVDHRGLTFQQNASSMCVPDQDTAIRVFAIPPSFASIFLTKSTKLTCLVTDLTTYDSVTISWTRQNGEAVKTHTNISESHPNATFSAVGEASICEDDWNSGERFTCTVTHTDLPSPLKQTISRPKGVALHRPDVYLLPPAREQLNLRESATITCLVTGFSPADVFVQWMQRGQPLSPEKYVTSAPMPEPQAPGRYFAHSILTVSEEEWNTGETYTCVVAHEALPNRVTERTVDKSTGKPTLYNVSLVMSDTAGTCY
modifications: CHO-cell N-glycans; disulfide-linked hexamer. Limits taken as Cmu2-Cmu4 plus tailpiece; needs the secreted isoform (453 aa), not the 474-aa membrane form displayed as P01871
As to B1, the results for the Kd (in assay [4]; with recombinant SIGNR1) were 260 nM and 2200 nM, respectively.
